This note sets out measurements from US10295537B2, “Biorecognition elements for rapid detection of biocontamination” (The United States of America, as represented by the …, priority 2017, dated 2019).

Experiment [1] concerns the target biotinylated bovine serum albumin (BSA) (Bos taurus, UniProt P02769). The experiment in a line: Biopanning against biotinylated BSA to identify target-unrelated peptides. The class given is binding. To be noted: phage displaying the peptide, round 3. From the text: The phage library was then screened to identify target-unrelated peptides by using biotinylated bovine serum albumin (“BSA”) as a target for biopanning.

For another experiment, the target named is T1, OprF1 (Pseudomonas aeruginosa, UniProt P13794).
T1 sequence (P13794 whole entry, looked up): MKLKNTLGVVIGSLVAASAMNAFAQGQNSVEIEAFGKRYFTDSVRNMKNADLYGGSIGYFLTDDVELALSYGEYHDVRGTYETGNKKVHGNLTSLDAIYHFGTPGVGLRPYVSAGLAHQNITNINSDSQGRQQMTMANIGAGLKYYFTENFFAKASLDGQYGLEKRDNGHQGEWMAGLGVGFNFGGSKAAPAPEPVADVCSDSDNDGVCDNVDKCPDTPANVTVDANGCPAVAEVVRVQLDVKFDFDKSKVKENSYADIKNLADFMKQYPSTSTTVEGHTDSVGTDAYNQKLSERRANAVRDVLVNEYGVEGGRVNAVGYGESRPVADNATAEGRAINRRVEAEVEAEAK
In words: Solution-phase biopanning of Ph.D.-7 phage library against OprF1 with amplification, physiological conditions, clone abundance. Type of experiment: binding, P. aeruginosa. The settings on record: four rounds with amplification, physiological conditions (pH 7). An excerpt:
Biotinylated at its N-terminal, an OprF1 synthetic peptide was used for solution biopanning screening of a commercially-available M13 bacteriophage library displaying heptameric peptides at the N-terminal of P3 coat protein. Solution-phase biopanning provided the benefit of including the availability of all the OprF1 aa residues for interaction with the potential peptide binder with lessened likelihood of isolating unspecific peptides that might bind to the capture element used to purify the phage-antigen complex (i.e., magnetic or protein G beads).
Generally, solution-phase biopanning was carried out as described by the manufacturer (New England Biolabs, Ipswich, Mass.) with some modifications, including the changing of pH from 7.0 to 5.5 and 8.5 and adding 1% v/v of Jet A fuel. The first round of selection was carried out by diluting Ph.D.-7 bacteriophage library 100-fold in 0.1% Tris buffer saline plus Tween 20 (0.1% TBST) at the appropriate pH for selection plus fuel. Subsequently, the phage library was incubated with 1 μg of N-terminal biotinylated target protein fragment (OprF1: […] (SEQ. ID No. 1), OprF2: ADIKNLADFMK QYPSTSTT (SEQ. ID No. 2), Opr86: […] STP (SEQ. ID No. 3)) for 1 hr at 25° C. […] Titer of the amplified phage (more than 10^10 pfu/mL) was determined by infection into E. coli ER2738 and subsequent growth in selective medium containing X gal/IPTG. […]

A further experiment addresses T2, biotinylated OprF1 (Pseudomonas aeruginosa, UniProt P13794).
T2 construct: Biotinylated at its N-terminal, an OprF1 synthetic peptide was used for solution biopanning screening
T2 sequence (P13794 whole entry, looked up): T1 sequence (P13794 whole entry, looked up)
In words: Unamplified competitive solution biopanning of 14 monoclonal phages against biotinylated OprF1; percent abundance among 30 clones as relative affinity. Type of experiment: binding, P. aeruginosa. To be noted: Bushnell-Haas pH 8.5 with 1% v/v Jet-A, 30 randomly selected clones.

Sequence of biotinylated bovine serum albumin (BSA) (P02769 25-607): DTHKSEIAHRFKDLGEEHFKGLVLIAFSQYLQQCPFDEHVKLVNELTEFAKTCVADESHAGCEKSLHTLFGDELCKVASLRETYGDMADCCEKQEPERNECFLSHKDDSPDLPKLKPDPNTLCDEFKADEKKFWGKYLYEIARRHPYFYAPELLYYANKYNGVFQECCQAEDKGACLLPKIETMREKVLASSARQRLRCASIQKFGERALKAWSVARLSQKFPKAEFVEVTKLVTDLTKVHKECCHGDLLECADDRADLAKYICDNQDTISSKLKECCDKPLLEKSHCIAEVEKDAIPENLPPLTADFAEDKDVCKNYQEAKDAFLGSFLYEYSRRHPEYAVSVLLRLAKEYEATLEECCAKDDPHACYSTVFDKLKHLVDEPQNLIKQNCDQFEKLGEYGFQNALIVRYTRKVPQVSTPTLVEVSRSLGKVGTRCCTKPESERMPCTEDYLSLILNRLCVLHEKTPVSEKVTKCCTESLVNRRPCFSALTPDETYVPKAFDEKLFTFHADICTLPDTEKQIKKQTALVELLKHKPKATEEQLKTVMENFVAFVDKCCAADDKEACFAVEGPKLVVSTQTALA

Consider “PPKINIM (Artificial sequence obtained through biopanning.) [target-unrelated, cross-reacts with BSA]”, for which the “cross-reaction with BSA” value in experiment [1] is listed as “cross-react with BSA”. The “abundance based on round 4 clones” value in the experiment with OprF1 is given as 80%. Further, the “% Abundance” value in the experiment with biotinylated OprF1 stood at 3%.
